# Results: the supplement of paper PMC10126150
# ± gives the standard deviation of the averaged measurements.
# System: ATP
# Experiment: switch fluorescence ratio, 500 uM ATP over buffer (Cy3 cluster intensity, sum of 5 cycles each) (fold (ratio)); higher = stronger signal-on switching upon ATP binding; sequences stand for … in TCGTCGGCAGCGTCAGATGTGTATAAGAGACAGTTTTTTTTTTTTTTTTTTTTTTTTT…TC
# Conditions: aptamer strand: ATP DNA aptamer (quencher-CACCTGGGGGAGTATTGCGGAGGAAGG + anchor), 100 nM annealed; ATP concentration: 500 uM
# Procedure, shortened: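 Imaging in selection buffer was followed by imaging after 15 min with 500 uM ATP at 22 °C, for Cy3-labelled switching-strand clusters annealed to 100 nM quencher-labelled ATP aptamer on a modified Illumina MiSeq flow-cell. Five of these buffer/ATP cycles ran, separated by NaOH stripping and re-annealing. The fluorescence ratio per cluster is summed target-cycle over summed buffer-cycle Cy3 intensity, averaged per switch-domain sequence; clusters outside 100-1000 RFU were removed.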
# 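Further: ATP exposure 15 min at 22 °C before imaging.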
row,Sequence,switch fluorescence ratio
1,GCTGGGATTA,0.984 ± 0.012
2,GCTGGGCACA,0.967 ± 0.03
3,GCTGGGGACG,0.938 ± 0.084
4,GCTGGGGGGC,0.988 ± 0.033
5,GCTGGGGTAA,1.02 ± 0.021
6,GCTGGGGTGC,1 ± 0.09
7,GCTGGGTAAT,1.02 ± 0.044
8,GCTGGGTCGA,1.03 ± 0.01
9,GCTGGGTGAT,1.018 ± 0.0069
10,GCTGGTAAAG,0.972 ± 0.017
11,GCTGGTAAGC,0.9696 ± 0.0029
12,GCTGGTTAGT,1 ± 0.014
13,GCTGTAGGAG,0.9843 ± 0.0072
14,GCTGTAGGCG,0.988 ± 0.015
15,GCTGTATGCA,0.976 ± 0.012
16,GCTGTGAGGT,0.979 ± 0.0018
17,GCTGTGCGCA,1.02 ± 0.019
18,GCTGTGTAGA,1.073 ± 0.0021
19,GCTGTGTTGG,1.02 ± 0.013
20,GCTGTTCACG,1.01 ± 0.014
21,GCTGTTGGCA,1.01 ± 0.025
22,GCTGTTTCAG,0.986 ± 0.016
23,GCTGTTTGGG,0.997 ± 0.014
24,GCTGTTTTCA,0.984 ± 0.048
25,GCTTAACGCT,0.999 ± 0.019

row,Sequence,switch fluorescence ratio
1,GCTTAACGTA,1.05 ± 0.044
2,GCTTAACTTC,0.982 ± 0.039
3,GCTTAAGGGG,0.989 ± 0.029
4,GCTTACCCCC,2.09 ± 0.13
5,GCTTACTGTA,1.15 ± 0.024
6,GCTTAGGTCA,0.982 ± 0.034
7,GCTTAGTATA,1.01 ± 0.019
8,GCTTAGTGGT,0.981 ± 0.025
9,GCTTATGTTC,1.015 ± 0.0097
10,GCTTATTCGG,0.959 ± 0.03
11,GCTTCAGCAA,1.03 ± 0.055
12,GCTTCAGTGA,1.02 ± 0.019
13,GCTTCCAGTT,0.995 ± 0.035
14,GCTTCCGAGA,1.87 ± 0.05
15,GCTTCGAAGG,0.993 ± 0.031
16,GCTTCGGGTT,0.976 ± 0.028
17,GCTTCTACTG,0.988 ± 0.034
18,GCTTCTAGGT,0.9976 ± 0.0043
19,GCTTGAGGAG,1 ± 0.009
20,GCTTGAGTTC,1.03 ± 0.025
21,GCTTGAGTTG,1.0068 ± 0.0004
22,GCTTGATGTG,0.986 ± 0.015
23,GCTTGCTATG,0.976 ± 0.014
24,GCTTGGGAAC,0.993 ± 0.028
25,GCTTGGGGGG,1.02 ± 0.029

row,Sequence,switch fluorescence ratio
1,GCTTGGGGTG,1.02 ± 0.024
2,GCTTGGGTAT,1.02 ± 0.062
3,GCTTGGTTTT,1.01 ± 0.013
4,GCTTGTCGGT,1.022 ± 0.0096
5,GCTTGTCTTC,1.005 ± 0.0014
6,GCTTGTGGAG,1.02 ± 0.013
7,GCTTGTTCGG,1.04 ± 0.011
8,GCTTTAGTAT,0.9963 ± 0.0058
9,GCTTTATGGG,0.98 ± 0.027
10,GCTTTCATAT,0.9996 ± 0.0099
11,GCTTTCGATC,1.05 ± 0.033
12,GCTTTGATGT,0.9839 ± 0.0032
13,GCTTTGGATG,0.968 ± 0.05
14,GCTTTGGGGC,1.01 ± 0.02
15,GCTTTGTATA,1 ± 0.021
16,GCTTTGTGAT,1.01 ± 0.066
17,GCTTTTAGCG,0.989 ± 0.055
18,GCTTTTGAAG,0.993 ± 0.019
19,GCTTTTGGCA,1.019 ± 0.0057
20,GCTTTTGTAT,0.991 ± 0.025
21,GGAAAAATTG,1.02 ± 0.021
22,GGAAAAGGGT,0.998 ± 0.04
23,GGAAAATACA,0.985 ± 0.025
24,GGAAACAGTT,1 ± 0.032
25,GGAAACTTAG,1.019 ± 0.0089

row,Sequence,switch fluorescence ratio
1,GGAAAGGGAG,0.97 ± 0.02
2,GGAAAGGGGC,0.95 ± 0.053
3,GGAAAGTCGT,1.03 ± 0.018
4,GGAAATATTT,0.98 ± 0.016
5,GGAAATGGGC,0.97 ± 0.042
6,GGAAATGTTT,1.01 ± 0.026
7,GGAAATTGTG,1.04 ± 0.052
8,GGAACAGCGG,1.001 ± 0.0016
9,GGAACGAAGA,0.98 ± 0.028
10,GGAACGAGAG,0.989 ± 0.03
11,GGAACGGGGC,0.961 ± 0.06
12,GGAACGGGTG,1.09 ± 0.17
13,GGAACGTGTT,1.004 ± 0.0097
14,GGAACTCATG,0.959 ± 0.046
15,GGAACTTAAG,0.9794 ± 0.0043
16,GGAACTTGGT,0.928 ± 0.087
17,GGAAGAGGAA,0.988 ± 0.025
18,GGAAGAGGTG,1.09 ± 0.022
19,GGAAGATTTG,1.06 ± 0.055
20,GGAAGCGAAC,1.47 ± 0.067
21,GGAAGCGGGT,0.994 ± 0.042
22,GGAAGGAGTG,0.987 ± 0.036
23,GGAAGGGCTT,1 ± 0.034
24,GGAAGGGGAA,1.01 ± 0.028
25,GGAAGGGGAT,0.9986 ± 0.0061

row,Sequence,switch fluorescence ratio
1,GGAAGGTA,0.997 ± 0.03
2,GGAAGTAGGA,0.98839 ± 0.00067
3,GGAAGTAGGT,0.988 ± 0.02
4,GGAAGTCTCA,0.975 ± 0.012
5,GGAAGTGGTA,0.976 ± 0.021
6,GGAAGTTGTA,1.07 ± 0.13
7,GGAATAGGGA,0.982 ± 0.052
8,GGAATAGTGC,1.01 ± 0.052
9,GGAATATAAC,1 ± 0.045
10,GGAATATGC,1.13 ± 0.1
11,GGAATCAAAC,0.996 ± 0.0094
12,GGAATCTGCC,1.14 ± 0.024
13,GGAATGACGG,1.012 ± 0.0024
14,GGAATGGGTT,1.01 ± 0.023
15,GGAATGTGCA,0.987 ± 0.023
16,GGAATGTGGT,1.027 ± 0.002
17,GGAATTAGTG,0.995 ± 0.025
18,GGAATTGAGT,1.02 ± 0.021
19,GGAATTGGGG,1.01 ± 0.027
20,GGACAAAAAC,1.02 ± 0.013
21,GGACAAAAGA,0.984 ± 0.011
22,GGACACTGGT,1.06 ± 0.041
23,GGACAGGCGC,1.006 ± 0.0024
24,GGACATGGCG,0.943 ± 0.019
25,GGACATTCGC,1.04 ± 0.013

row,Sequence,switch fluorescence ratio
1,GGACCGGACG,1.106 ± 0.0093
2,GGACCTGCTG,0.969 ± 0.0033
3,GGACGAATGG,1.02 ± 0.013
4,GGACGATGGG,0.995 ± 0.045
5,GGACGGGGAT,1 ± 0.015
6,GGACGGGTGT,0.996 ± 0.011
7,GGACGGGTTT,1 ± 0.031
8,GGACGTAGTA,1.006 ± 0.0071
9,GGACGTATTA,1.03 ± 0.051
10,GGACGTGGGG,0.953 ± 0.069
11,GGACGTGGTA,1.03 ± 0.028
12,GGACTAGATG,0.978 ± 0.013
13,GGACTATGCG,0.985 ± 0.032
14,GGACTCCTAG,0.995 ± 0.028
15,GGACTGCGGT,0.979 ± 0.022
16,GGACTGCTGG,1.03 ± 0.033
17,GGACTTGTTT,0.984 ± 0.022
18,GGACTTTGGC,0.983 ± 0.042
19,GGACTTTTTG,0.953 ± 0.045
20,GGAGAACGAT,1.03 ± 0.027
21,GGAGAAGTCC,1.03 ± 0.093
22,GGAGAAGTGG,0.976 ± 0.034
23,GGAGAATGCC,1.04 ± 0.053
24,GGAGAATGCG,1.02 ± 0.013
25,GGAGAATTTT,1.04 ± 0.049

row,Sequence,switch fluorescence ratio
1,GGAGACTTGA,0.986 ± 0.024
2,GGAGAGGAAT,1.01 ± 0.044
3,GGAGAGGGAG,0.9883 ± 0.0015
4,GGAGAGGGTA,1.01 ± 0.035
5,GGAGATATCA,1.035 ± 0.0074
6,GGAGATGCAG,0.969 ± 0.046
7,GGAGATGCTA,0.9616 ± 0.0059
8,GGAGATGTCA,1.013 ± 0.0081
9,GGAGATTGAT,1 ± 0.021
10,GGAGATTTTA,1.04 ± 0.068
11,GGAGCGAAGT,1.16 ± 0.26
12,GGAGCGAGAG,3.37 ± 0.28
13,GGAGCGATGG,3.31 ± 1.2
14,GGAGCTGGGG,1.04 ± 0.065
15,GGAGCTTGCA,1.02 ± 0.023
16,GGAGGCAGTT,0.9738 ± 0.006
17,GGAGGCATAT,1.13 ± 0.039
18,GGAGGCGGAG,1.002 ± 0.0077
19,GGAGGCTGGT,1.018 ± 0.01
20,GGAGGGAGTT,1.03 ± 0.049
21,GGAGGGCAAC,1.01 ± 0.028
22,GGAGGGCGTC,0.952 ± 0.0048
23,GGAGGGGAGC,0.974 ± 0.056
24,GGAGGGGGTA,1.01 ± 0.016
25,GGAGGGGGTG,0.989 ± 0.044

row,Sequence,switch fluorescence ratio
1,GGAGGGGTCA,0.9744 ± 0.0097
2,GGAGGGGTCG,1.02 ± 0.033
3,GGAGGGTGCG,1.011 ± 0.0064
4,GGAGGGTTGG,0.998 ± 0.059
5,GGAGGGTTTG,0.992 ± 0.034
6,GGAGGTACAC,1.03 ± 0.037
7,GGAGTAAATG,1.01 ± 0.015
8,GGAGTAAGAG,1.11 ± 0.21
9,GGAGTACCGG,1.01 ± 0.049
10,GGAGTCATGA,0.982 ± 0.04
11,GGAGTCGTCC,1.01 ± 0.024
12,GGAGTCTAGG,0.994 ± 0.031
13,GGAGTGACGG,0.9979 ± 0.0024
14,GGAGTGAGGG,0.985 ± 0.05
15,GGAGTGTGGG,0.986 ± 0.019
16,GGAGTGTGTG,0.96 ± 0.044
17,GGAGTTAGGG,0.977 ± 0.011
18,GGAGTTGTTG,0.99 ± 0.009
19,GGAGTTTCGT,0.988 ± 0.023
20,GGATAATAGT,0.9916 ± 0.0082
21,GGATAATGGC,0.94 ± 0.059
22,GGATACGTTT,0.994 ± 0.012
23,GGATAGAGTG,0.971 ± 0.052
24,GGATAGGGGA,1.01 ± 0.017
25,GGATAGGGGT,1.05 ± 0.062
